This is an account of results in the nanobody polyreactivity screen of Harvey et al. (2022).

The nature of this data set: yeast display, Sf9 membrane polyspecificity reagent, FACS + sequencing; frameworks hold sequencing errors. Put shortly: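 Polyreactivity labels are assigned by the sorting gate from which each nanobody was recovered. The gates were low and high (top ~1%), set on anti-HA fluorescence for expression and streptavidin fluorescence for reagent binding. Before sorting, galactose-induced (36–48 hours) yeast display cells were stained for 1 hour at 4 °C with 10% biotinylated, detergent-solubilized Sf9 membrane reagent.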
As for “QVQLVESGGGLVQAGGSLRLSCPASGLIFLHNAMGWYRQAPGKERELVATISLSGGSTYADSVKGRFTISRDNAKNTVYLQLYSLKPEDTAVYYCAAGGQYYIIRYDYWGQGTQVTVSS”, the “polyreactivity (PSR sort gate)” value was “low polyreactivity”.
The entry for “QVQLVESGGCLVQAGGSLRLSCAASGLLFYFYAMGWYRQAPGKEREFVAAISSGGDTYYADSVKGRFTISRDNSKNTVYLQMNSLKPVDTAVYYCAVGTVYLTYRGYEYWGQGTQVTVSS” is “high polyreactivity”; for “QVQLVESGGGLVQAGGSLRLSCAASGSTFSEYAMGWYRQAPGKEREFVATITVRGGSTYYADSVKGRFTISRDNAKNTVYLQMNSLKPEDTAVYYCAADGSGYYDWYYYWGQGTQVTVSS” it is “low polyreactivity”; for “QVQLVESGGGLVQAGGSLRLSCAASGSTFWFNAMGWYRQAPGKERELVAAIDSNTGSTSYADSVKGRFTISRDNAKNTVYLQMNSLIPEDTAVYYCNADYDFAKDRGDYWGQGTQVTVSS” it is “low polyreactivity”.
Then “QVQLVESGGGLVQAGGSLRLSCAASGSILSPYAMGWYRQAPGKERELVAAISRSGDRTYYADSVKGRFTISRDNAKNTVYLQMNSLKPEDTAVYYCAAEYSWPWDYYYWGQGTQVTVSS”, with “high polyreactivity”; and “QVQLVESGGGLVQAGGSLRLSCAASGSIFYVYAMGWYRQAPGKERELVATISSSAGSTYYADSVKGRFTISRDNAKNTVYLQMNSLKPEDTAVYYCAAKVRYSLRKYYYWGQGTQVTVSS”, with “high polyreactivity”; and “QVQLVESGGGLVQAGGSLRLSCDASGRLFYRNAMGWYRQAPGKDRELVASITSAGRTYYADSVKGRFTISRDNAKNTVYLQMNSLKPEDTAVYYCAVRGYAKSFSNAKYYYWGQGTQVTVSS”, with “low polyreactivity”.
Then “QVQLEESGGGLVQAGGSLRLSCAASGSIFDPNAMGWYRKAPGKERELVADIDSSDGSTYYADSVKGRFTISRDNAKNTVYLQMNSLKPEDTAVYYCNARYGGWVWSTYDHWGQGTQVTVSS”, with “low polyreactivity”; and “QVQLVESGGGLVQAGGSLRFSCAASGFTFSHYAMGWYRQAPGQERELVAAITWSGGSTYYADSVKGRFTISRDNEKNTVYLQLNSVKPEDTAVYYCAAESYRDGVDYWGQGTQVTVSS”, with “high polyreactivity”.
“QVQLVESGAGLVQAGGSLRLSCAASGFAFYLYAMGWYRQAPGIERELVAAISSRGGNTYYADTVKGRFTISRDYAKNTVYLPMISLKPEDNAVYYCAAEFWNWYGDYDYWGQGTQVTVSS”: the “polyreactivity (PSR sort gate)” value is “high polyreactivity”.
The entry for “QVQLVESGGGLVQAGGSLRLTCAASGGTFQYYSMGWYRQAPGKERELVAAITTSGGSTYYADSVKGRFTISRDNAKNTDYLQMNSLKPEDTAVYYCAAGRGYRGYVRYYYWGQGTQVTVSS” is “high polyreactivity”.
For “QVQLVESGGGLVQAGGSLRLSCAASGSIFGGYALGWYRQAPGNERELVAAITSSGGRTYYADSVKGRFTISRDNAKNTVYLQMNSLKPEDTAVYYCAARYTRWRYIYKDYDYWGQGTQVTVSS”, the “polyreactivity (PSR sort gate)” value is given as “high polyreactivity”.
Consider “QVQLVESGGGLVQAGGSLRLSCAASGRTIITYAMGWYRQAPGKERELVAAINSTDGTSYADSVKGRFTISRDNAKNTVYLQMNSLKPEDTAVYYCARGTEVKSGISYRFYYWGQGTQVTVSS”, for which the “polyreactivity (PSR sort gate)” value is given as “low polyreactivity”.
Then “QVQLVESGGGLDQAGGSLRLSCAASGSIFQYYAMGWYRQAPGKEREFVAAITSDGSSTYYADSVKGRFTISRDNAKNTVYLQMNSLKPEDTAVYYCAAGWVGYRLPSMYYWGQGTQVTVSS”, with “high polyreactivity”.
The entry for “QVQLVESGGGLVQAGGSLRLSCAASGFTFLVYAMGWYRQAPGKERELVAAISRRGGSTYYADSVKGRFTISRDNAKNTVYLQINSLKPEDTAVYYCNVDRYYRIGYYRLTMGYWGQGTQVTVSS” is “high polyreactivity”; for “QVQLVESGGGLVQAGGSLRLSCAASGSIFERNAMGWYRQAPGKERELVAGISSSGRTNYADSVKGRFTISRDNAKNTVYLQMNSLKPEDTAVYYCSADTYLYWEYDYWGQGTQVTVSS” it is “low polyreactivity”; for “QVQLVESGGGLVQAGGSLRLSCAASGSIFSTYAIVWYRQAPGKERELVAAISVSGGRTYYADSVKGRFTISRDNAKYTVYLQMNSLKPEDTAVYYCNAYPFWRDYDYWGQGTQVTVSS” it is “high polyreactivity”.
As for “QVQLVESGGGLVQAGGSLRLSCAASGSTFPFYVMGWYRQAPGKERELVASITATGSSTYYADSVKGRFTISRDNAKNTVYLQMNRLKPEDTAVYYCAAPYFGWYLGYYWYREYDYWGQGTQVTVSS”, the “polyreactivity (PSR sort gate)” value is “low polyreactivity”.
Consider “QVQLVESGGGLVQAGGSLRLSCAASGRIFGRNTMGWYRQAPGKERELVAAISYSAGSTYYADSVKGRFTISRDNAKNTVYLQMNSLKPEDTAVYYCAAGYIRTTYRTNRYGYWGQGTQVTVSS”, for which the “polyreactivity (PSR sort gate)” value is “high polyreactivity”.
Then “QVQLVESGGGLVQAGGSLRLSCAASGRIFQYYAMGWYRQAPGKERELVAAINSSGGRTYYADSVKGRFTISRDTAKNTVYLQMNSLTPEDTAVNSCNAVLSTRGMDYWGQGTQVTVSS”, with “high polyreactivity”; and “QVQLVESGGGLVQAGGSLRLSCAASGSIFVFYAMGWYRQAPGKERELVATISSAGSTYYADSVKGRFTISRDNAKNTVYLQMNSLKPEDTAVYYCARGYIPSYWWYHSDRGDYWGQGTQVTVSS”, with “low polyreactivity”; and “QVQLVESGGGLVQAGGSLRLSCAASGRTFVNNAMGWYRQAPGKERELVAAITRSGGRTYYADSVKGRFTISRDNAKNTVYLQMNSLKPVDTAVYYCATANVRLRHDDYWGQGTQVTVSS”, with “high polyreactivity”.
The entry for “QVQLLESGGGLVQAGGSLRLSCAASGSIFFYYAMGWDRQAPGKERELVATITSGGSTSYADSVKGRFTISRDNAKNTVYLQMNSLKPEDTAVYYCAARKVTKSTYNYWGQGTQVTVSS” is “low polyreactivity”.
Then “QVQLVESGGGLDQAGGSLRLSCAASGRIFSYYTMGWYRQAPGKERELVAAITWGGGSTSYADSVKGRFTISRDNAKNTVYLQMNSLKPEDTAVYYCAESPGANRMDYWGQGTQVTVSS”, with “low polyreactivity”; and “QVQLVESGGGLGQAGGSLRLSCAASGFTFVFYAMGWYRQAPGKERELVAGISRTGGSTYYADSVKGRFTISRDNAKNTVYLQMNSLKPEDTAVYYCAAVSRGFGSRGYDYWGQGTQVTVSS”, with “high polyreactivity”.
For “QVQLVESGGGLVQAGGSLRLSCAASGFTFERNTMGWYRPAPGKERELVATITRRGTSTYYADSVKGRFTISRDNAKNTVYLQMNSLKPEDTAVYYCARGQYSHRSQAGMDYWGQGTQVTVSS”, the “polyreactivity (PSR sort gate)” value is given as “high polyreactivity”.
The entry for “QVQLVESGGGLVQAGGSLRLSCAASGFTFVSNAMVWSRQAPGKERELVADITSDGSTNYADSVKGRFTISRDNAKNTVYLQMNSLKPEDTAVYHCATDQRSNTWVNQFDYWGQGTQVTVSS” is “low polyreactivity”; for “QVQLVESGGGLVQAGGSLRLSCAASGSIFIRYAMGWYRQAPGKERELVAAITRSGGSTYYADSVKGRFTISRDNAKNTVYLQMNSLKPEDTAVYYCNVLLRRNGYFARGDYWGQGTQVTVSS” it is “high polyreactivity”.
Then “QVQLVESGGGLVQAGGSLRLSCAASGSTFGYYAMGWYRQAPGKERELVATITIGGSTHYADSVKGRFTISRDNAKNTVYLQMNSLKPEDTAVYYCAKRYYTNRHSRAFGFWGQGSQVTVSS”, with “high polyreactivity”.
The entry for “QVQLVESGGGIVQAGGSLRLSCAASGFIFSNYAMGWYRQAPGKERELVAAISSGGTITKYADSVKGRFTISRDNAKNTVYLQMNSLKTEDTAVYYCNAVVRVRFRKNDYWGQGTQVTVSS” is “high polyreactivity”.
For the sequence “QFQLVESGGGLVQAGGSLRLSCAASGSTFQWYAMGWYRQAPGKERELVAAINKSGGTTYYADSVKGRFTISRDNAKNTVYLQMNSLKPEDTAVYYCATDNPVVYQPGNMDYWGQGTQVTVSS”, the “polyreactivity (PSR sort gate)” value is listed as “low polyreactivity”.
Regarding “QVQLVESGGGLVLAGGSLRLSCAASGRTFRTYTMGWYRQAPGKERELVAAISYSGGSTYYADSVKGRFTISRDNAKNTVYLQMNSLKPEDTAVYYCAVYQVGWYGLMDYWGEGTQVTVSS”, the “polyreactivity (PSR sort gate)” value is given as “high polyreactivity”.
Then “QVQLVESGGGLVQAGGSLRLSCAASGYIVLVYAMGWYRQAPGKERELFASITRGTRTYYADSVKGRFTISRDNAKNTVYLQMNSLKPEDTAVYYCAAEHSGYPVAFYITGYGYDYWGQGTQVTVSS”, with “low polyreactivity”; and “QVQLLESCGGLVQAGGSLRLSCAASGSILTQYAMGWYRQAPGKERELVAAITGRGGSTYYADSVKGRFTISRDIAMYTVYLEMNSLKPEDTAVFYCAAEERYAYRYDYWGQGTQVTVSS”, with “high polyreactivity”.
The entry for “QFHLVESGGRLVQAGGSLRLSCAASGRIFYYYVMGWYRQAPGKERELVAVIDWSGGSTYYADSVKGRFTISRDNAKNTVYVQMNSLKPEDTAVYYCAKVWLNFSLAYEDYDYWGQGTQVTVSS” is “low polyreactivity”; for “QVQLVESGGGLVHAGGSLRLSCAASGSTFHTYDMGWYRKAPWKERELVAAITSRDSTHYADSVKGCFTISRDNAKNTVYLQMNSLKPEDTAVYYCAASAPYLYYRSAYYYWGQGTQVTVSS” it is “low polyreactivity”.
Then “QVQHVESGGGLVQAGGSLRLSCAASGFTFGSYAMGWYRQAPGKERELVARISSDGSTNYADSVKGRFTISRDNPKNTVYLQMNSLKPEDTAVYYCAADRVVEYADYYYWGQGTQVTVSS”, with “low polyreactivity”.
In the case of “QVQRVESGGGLVQAGGSLRLSCAASGNTFWLNAMGWYRQAPGKERELVAAITYTDGSTYADSVKGRFTISRDNAKNTVYLQMNSLKPEDTAVYYCAARYQWDWRDYYYWGQGTQVTVSS”, the “polyreactivity (PSR sort gate)” value is recorded as “low polyreactivity”.
Then “QVQLVESGGGLVQAGGSLRLSCAASGSIFSDNVMGWYRQAPGKERELVAAIRDGDTTNYADSVKGRFTISRDNAKNTVYLQMNCLKPEDTAVYYCAAVQASSPDYSYAYLDGDRDYWGQGTQVTVSS”, with “low polyreactivity”; and “QVQLVESGGGLVQAGGSLRLSCAASGRNFYYYAMGWYRQAPGKERELVATITGSGGNTYYADSVKGRFTISRDNAKNTVYLQMNSLKPEDTAVYFCNARLARGYWTPGKERPMEYWGQGTQVTVSS”, with “low polyreactivity”.
